Experiment in all cases: pull-down
One assay deals with T1, GST-Fkbp5 (UniProt Q64378 1-456).
T1 sequence (looked up): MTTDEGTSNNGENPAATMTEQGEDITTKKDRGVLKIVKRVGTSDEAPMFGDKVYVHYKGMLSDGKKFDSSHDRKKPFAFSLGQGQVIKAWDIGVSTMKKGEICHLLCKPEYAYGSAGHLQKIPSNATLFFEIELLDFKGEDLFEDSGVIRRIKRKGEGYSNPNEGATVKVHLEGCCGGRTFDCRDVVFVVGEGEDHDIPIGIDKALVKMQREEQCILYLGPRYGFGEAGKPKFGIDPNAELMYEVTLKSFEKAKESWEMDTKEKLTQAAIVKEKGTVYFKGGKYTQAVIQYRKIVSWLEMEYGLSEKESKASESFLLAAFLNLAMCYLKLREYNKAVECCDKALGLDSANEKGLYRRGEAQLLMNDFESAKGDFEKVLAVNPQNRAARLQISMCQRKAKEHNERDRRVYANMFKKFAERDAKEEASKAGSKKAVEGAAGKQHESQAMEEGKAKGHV

A further assay concerns the target T2, GST-Fkbp5-Δ1 (UniProt Q64378 1-456, deletion of amino acids 50-138).
T2 sequence (looked up): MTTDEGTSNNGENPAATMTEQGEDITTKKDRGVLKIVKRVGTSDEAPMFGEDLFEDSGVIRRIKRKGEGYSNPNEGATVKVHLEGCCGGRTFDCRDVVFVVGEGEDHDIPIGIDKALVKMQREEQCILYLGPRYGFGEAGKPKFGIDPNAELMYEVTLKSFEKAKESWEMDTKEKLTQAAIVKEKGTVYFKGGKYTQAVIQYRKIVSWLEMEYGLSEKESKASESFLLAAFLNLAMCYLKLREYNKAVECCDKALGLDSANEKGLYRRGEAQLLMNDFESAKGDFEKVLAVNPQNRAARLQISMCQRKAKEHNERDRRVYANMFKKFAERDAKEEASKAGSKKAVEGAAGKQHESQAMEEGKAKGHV

For a further assay, the target named is T3, GST-Fkbp5-F130Y (UniProt Q64378 1-456, F130Y).
T3 sequence (looked up): T1 sequence (looked up) with F130Y

Another assay concerns the target T4, GST-Fkbp5-Δ2 (UniProt Q64378 1-456, deletion of amino acids 165-251).
T4 sequence (looked up): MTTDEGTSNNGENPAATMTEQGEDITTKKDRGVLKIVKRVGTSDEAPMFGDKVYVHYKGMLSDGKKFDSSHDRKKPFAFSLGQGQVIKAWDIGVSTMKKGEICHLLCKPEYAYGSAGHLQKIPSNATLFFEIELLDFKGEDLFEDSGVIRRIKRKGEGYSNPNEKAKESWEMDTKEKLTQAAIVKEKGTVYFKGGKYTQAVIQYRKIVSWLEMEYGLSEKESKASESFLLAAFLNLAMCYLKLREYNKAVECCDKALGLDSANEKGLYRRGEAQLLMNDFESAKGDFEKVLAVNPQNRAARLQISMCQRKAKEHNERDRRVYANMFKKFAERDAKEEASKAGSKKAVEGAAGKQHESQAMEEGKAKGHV

In the next assay the target is T5, GST-Fkbp5-W90L (UniProt Q64378 1-456, W90L).
T5 sequence (looked up): T1 sequence (looked up) with W90L

Data on four molecules can be found in article PMC6350781 (Cell reports, 2018).

Positions count from the first letter of the chain named.

B1: Cdk4-Δ1-6×His (domain or fragment, UniProt P30285 101-303, looked up)
chain: RTYLDKAPPPGLPVETIKDLMRQFLSGLDFLHANCIVHRDLKPENILVTSNGTVKLADFGLARIYSYQMALTPVVVTLWYRAPEVLLQSTYATPVDMWSVGCIFAEMFRRKPLFCGNSEADQLGKIFDLIGLPPEDDWPREVSLPRGAFAPRGPRPVQSVVPEMEESGAQLLLEMLTFNPHKRISAFRALQHSYLHKEESDAE
As for B1, the binding result with GST-Fkbp5 is given as “binds”.

B2: Cdk4-Δ2-6×His (natural protein, UniProt P30285 1-303, looked up)
chain: MAATRYEPVAEIGVGAYGTVYKARDPHSGHFVALKSVRVPNGGAAGGGLPVSTVREVALLRRLEAFEHPNVVRLMDVCATSRTDRDIKVTLVFEHIDQDLGCIFAEMFRRKPLFCGNSEADQLGKIFDLIGLPPEDDWPREVSLPRGAFAPRGPRPVQSVVPEMEESGAQLLLEMLTFNPHKRISAFRALQHSYLHKEESDAE
On to B2, for which the binding result in the assay with GST-Fkbp5 is “binds”.

B3: Cdk4-Δ3-6×His (domain or fragment, UniProt P30285 1-200, looked up)
chain: MAATRYEPVAEIGVGAYGTVYKARDPHSGHFVALKSVRVPNGGAAGGGLPVSTVREVALLRRLEAFEHPNVVRLMDVCATSRTDRDIKVTLVFEHIDQDLRTYLDKAPPPGLPVETIKDLMRQFLSGLDFLHANCIVHRDLKPENILVTSNGTVKLADFGLARIYSYQMALTPVVVTLWYRAPEVLLQSTYATPVDMWSV
As to B3, the binding result with GST-Fkbp5 is “binds”.

B4: Cdk4-6×His (natural protein, UniProt P30285 1-303, looked up)
chain: MAATRYEPVAEIGVGAYGTVYKARDPHSGHFVALKSVRVPNGGAAGGGLPVSTVREVALLRRLEAFEHPNVVRLMDVCATSRTDRDIKVTLVFEHIDQDLRTYLDKAPPPGLPVETIKDLMRQFLSGLDFLHANCIVHRDLKPENILVTSNGTVKLADFGLARIYSYQMALTPVVVTLWYRAPEVLLQSTYATPVDMWSVGCIFAEMFRRKPLFCGNSEADQLGKIFDLIGLPPEDDWPREVSLPRGAFAPRGPRPVQSVVPEMEESGAQLLLEMLTFNPHKRISAFRALQHSYLHKEESDAE
Take B4: the binding result in the assay with GST-Fkbp5-Δ1, with GST-Fkbp5-F130Y, in the assay with GST-Fkbp5, in the assay with GST-Fkbp5-Δ2 and with GST-Fkbp5-W90L was “binds” throughout.
